Values of other authors as cited in patent US20080213253A1, “COMBINATION THERAPY FOR THE TREATMENT OF CANCER” (DYAX CORP., priority 2007, published 2008).

Experiments:
Tie1 = Tie1 (Homo sapiens, UniProt P35590); conditions: statement in words, no data shown
[1] = biological target: Tie complex (Tie1 and Tie2) (Homo sapiens, UniProt P35590); conditions: statement in words, no data shown
Tie complex (Tie1 and Tie2), sequence (P35590 22-1138, one chain of several): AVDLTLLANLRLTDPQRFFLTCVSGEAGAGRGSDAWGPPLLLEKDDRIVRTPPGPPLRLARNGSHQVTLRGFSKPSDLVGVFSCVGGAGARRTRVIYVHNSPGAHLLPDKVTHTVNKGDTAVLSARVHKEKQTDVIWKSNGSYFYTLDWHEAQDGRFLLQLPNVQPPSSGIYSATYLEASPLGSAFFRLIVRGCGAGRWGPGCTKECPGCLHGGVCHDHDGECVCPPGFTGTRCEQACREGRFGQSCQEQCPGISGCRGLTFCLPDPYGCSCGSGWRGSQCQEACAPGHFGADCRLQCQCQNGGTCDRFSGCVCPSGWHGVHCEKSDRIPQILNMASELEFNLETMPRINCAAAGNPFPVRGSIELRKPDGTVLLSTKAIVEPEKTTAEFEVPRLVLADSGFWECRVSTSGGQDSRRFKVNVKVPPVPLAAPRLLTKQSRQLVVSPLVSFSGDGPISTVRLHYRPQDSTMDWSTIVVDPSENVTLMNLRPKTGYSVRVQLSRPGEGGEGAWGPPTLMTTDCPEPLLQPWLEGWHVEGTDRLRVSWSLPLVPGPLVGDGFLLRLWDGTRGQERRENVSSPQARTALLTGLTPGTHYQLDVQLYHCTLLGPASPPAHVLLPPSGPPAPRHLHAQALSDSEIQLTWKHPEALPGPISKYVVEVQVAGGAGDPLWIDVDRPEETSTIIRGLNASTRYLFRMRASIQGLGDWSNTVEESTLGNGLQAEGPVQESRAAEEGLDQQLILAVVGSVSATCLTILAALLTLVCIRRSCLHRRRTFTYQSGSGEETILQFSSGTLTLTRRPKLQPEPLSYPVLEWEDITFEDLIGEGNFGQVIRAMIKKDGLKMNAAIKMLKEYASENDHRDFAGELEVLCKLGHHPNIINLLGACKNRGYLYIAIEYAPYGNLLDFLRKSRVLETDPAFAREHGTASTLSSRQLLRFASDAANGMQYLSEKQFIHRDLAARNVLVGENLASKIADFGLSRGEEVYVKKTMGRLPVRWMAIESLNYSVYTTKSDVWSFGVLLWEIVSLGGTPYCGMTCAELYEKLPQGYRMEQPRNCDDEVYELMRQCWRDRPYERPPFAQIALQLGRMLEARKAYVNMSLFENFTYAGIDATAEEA

Tie1, sequence (P35590 22-1138): as the sequence (P35590 22-1138, one chain of several) above

B1: M0044-B08: Tie1 ectodomain-binding antibody; variable domains SEQ ID NO:1 and 3 (antibody, V domains shown)
VL: QDIQMTQSPSFLSASVGDRVTISCRASQYISIYLNWYQQRPGEAPKLLINAASSLQSGDPSRFSGSGSGTDFTLTINSLQPDDFATYYCQQYKSYPLTFGEGTKVEIK
VH: EVQLLESGGGLVQPGGSLRLSCAASGFTFSAYGMGWVRQAPGKGLEWVSVISPSGGQTSYADSVKGRFTISRDNSKNTLYLQMNSLRAEDTALYYCAGGDRYGPLHYWGQGTLVTVSS
- down modulation of Tie1 from the cell surface (Tie1): down modulation of Tie1 from the cell surface
- Tie complex formation [1]: induce Tie complex formation
